Measurements taken from the supplement of paper PMC11246515.
± gives the standard deviation of the averaged measurements.

Experiment: total protein half-life in vivo (active degradation + dilution); higher = more stable protein
[1] = E. coli NCM3722 delta-clpP, growth: N-lim chemostat, doubling time 6 h
[2] = E. coli NCM3722 delta-hslV, growth: N-lim chemostat, doubling time 6 h
[3] = E. coli NCM3722 delta-lon, growth: N-lim chemostat, doubling time 6 h
[4] = E. coli NCM3722 delta-smpB, growth: N-lim chemostat, doubling time 6 h
[5] = wild type E. coli NCM3722, growth: C-lim chemostat, doubling time 3 h
[6] = wild type E. coli NCM3722, growth: C-lim chemostat, doubling time 12 h
[7] = wild type E. coli NCM3722, growth: N-lim chemostat, doubling time 6 h
[8] = wild type E. coli NCM3722, growth: N-lim chemostat, doubling time 12 h
[9] = wild type E. coli NCM3722, growth: P-lim chemostat, doubling time 6 h
[10] = wild type E. coli NCM3722, growth: P-lim chemostat, doubling time 12 h
[11] = E. coli NCM3722 delta-clpP delta-lon delta-hslV, growth: N-lim chemostat, doubling time 6 h
[12] = wild type E. coli NCM3722, growth: C-lim chemostat, doubling time 6 h

Row | Sequence | total protein half-life in vivo [1] | total protein half-life in vivo [2] | total protein half-life in vivo [3] | total protein half-life in vivo [4] | total protein half-life in vivo [5] | total protein half-life in vivo [6] | total protein half-life in vivo [7] | total protein half-life in vivo [8] | total protein half-life in vivo [9] | total protein half-life in vivo [10] | total protein half-life in vivo [11] | total protein half-life in vivo [12]
1 | MRTQWPSPAKLNLFLYITGQRADGYHTLQTLFQFLDYGDTISIELRDDGDIRLLTPVEGVEHEDNLIVRAARLLMKTAADSGRLPTGSGANISIDKRLPMGGGLGGGSSNAATVLVALNHLWQCGLSMDELAEMGLTLGADVPVFVRGHAAFAEGVGEILTPVDPPEKWYLVAHPGVSIPTPVIFKDPELPRNTPKRSIETLLKCEFSNDCEVIARKRFREVDAVLSWLLEYAPSRLTGTGACVFAEFDTESEARQVLEQAPEWLNGFVAKGANLSPLHRAML | 4.11 ± 0.64 h | 4.05 ± 0.64 h | 4.25 ± 0.41 h | 4.04 ± 0.42 h | 2.95 ± 0.33 h | 10.5 ± 0.63 h | 4.43 ± 0.23 h | 6.789 ± 0.062 h | 5.31 ± 0.33 h | 10.47 ± 0.049 h | – | –
2 | MTLDLPRRFPWPTLLSVCIHGAVVAGLLYTSVHQVIELPAPAQPISVTMVTPADLEPPQAVQPPPEPVVEPEPEPEPIPEPPKEAPVVIEKPKPKPKPKPKPVKKVQEQPKRDVKPVESRPASPFENTAPARLTSSTATAATSKPVTSVASGPRALSRNQPQYPARAQALRIEGQVKVKFDVTPDGRVDNVQILSAKPANMFEREVKNAMRRWRYEPGKPGSGIVVNILFKINGTTEIQ | 3.18 ± 0.081 h | 2.27 ± 0.21 h | 1.79 ± 0.029 h | 2.92 ± 1.7 h | 1.93 ± 0.35 h | 5.81 ± 0.11 h | 2.33 ± 0.17 h | 3.29 ± 0.16 h | 3.17 ± 0.13 h | 6.09 ± 0.82 h | 3.05 ± 0.064 h | 3.6 ± 0.45 h
3 | MAYFLDFDERALKEWRKLGSTVREQLKKKLVEVLESPRIEANKLRGMPDCYKIKLRSSGYRLVYQVIDEKVVVFVISVGKRERSEVYSEAVKRIL [P0C077] | 3.59 ± 0.8 h | 2.54 ± 0.14 h | 3.36 ± 0.24 h | 2.83 ± 0.12 h | 3 ± 0.35 h | 6.2 ± 0.85 h | 2.58 ± 0.06 h | 3.73 ± 0.099 h | 3.75 ± 0.74 h | 11.3 ± 0.5 h | 4.02 ± 0.45 h | 4.25 ± 0.73 h
4 | MMKTMRIAAIPGDGIGKEVLPEGIRVLQAAAERWGFALSFEQMEWASCEYYSHHGKMMPDDWHEQLSRFDAIYFGAVGWPDTVPDHISLWGSLLKFRREFDQYVNLRPVRLFPGVPCPLAGKQPGDIDFYVVRENTEGEYSSLGGRVNEGTEHEVVIQESVFTRRGVDRILRYAFELAQSRPRKTLTSATKSNGLAISMPYWDERVEAMAENYPEIRWDKQHIDILCARFVMQPERFDVVVASNLFGDILSDLGPACTGTIGIAPSANLNPERTFPSLFEPVHGSAPDIYGKNIANPIATIWAGAMMLDFLGNGDERFQQAHNGILAAIEEVIAHGPKTPDMKGNATTPQVADAICKIILR | 2.64 ± 0.46 h | 2.66 ± 0.067 h | 4.83 ± 2.4 h | 2.68 ± 0.02 h | 2.6 ± 0.4 h | 7.5 ± 1.2 h | 2.6337 ± 0.002 h | 3.89 ± 0.11 h | 4.47 ± 0.67 h | 11.1 ± 0.13 h | 4.1 ± 1.1 h | 4.42 ± 0.51 h
5 | MTTQLEQAWELAKQRFAAVGIDVEEALRQLDRLPVSMHCWQGDDVSGFENPEGSLTGGIQATGNYPGKARNASELRADLEQAMRLIPGPKRLNLHAIYLESDTPVSRDQIKPEHFKNWVEWAKANQLGLDFNPSCFSHPLSADGFTLSHADDSIRQFWIDHCKASRRVSAYFGEQLGTPSVMNIWIPDGMKDITVDRLAPRQRLLAALDEVISEKLNPAHHIDAVESKLFGIGAESYTVGSNEFYMGYATSRQTALCLDAGHFHPTEVISDKISAAMLYVPQLLLHVSRPVRWDSDHVVLLDDETQAIASEIVRHDLFDRVHIGLDFFDASINRIAAWVIGTRNMKKALLRALLEPTAELRKLEAAGDYTARLALLEEQKSLPWQAVWEMYCQRHDTPAGSEWLESVRAYEKEILSRRG | 2.97 ± 0.12 h | – | 3.14 ± 0.07 h | 2.94 ± 0.21 h | – | 9.47 h | – | 3.73 h | 5.31 ± 0.18 h | 8.02 ± 5 h | 3.97 ± 0.74 h | 5.85 ± 1.9 h
6 | MMQPSIKPADEHSAGDIIARIGSLTRMLRDSLRELGLDQAIAEAAEAIPDARDRLYYVVQMTAQAAERALNSVEASQPHQDQMEKSAKALTQRWDDWFADPIDLADARELVTDTRQFLADVPAHTSFTNAQLLEIMMAQDFQDLTGQVIKRMMDVIQEIERQLLMVLLENIPEQESRPKRENQSLLNGPQVDTSKAGVVASQDQVDDLLDSLGF [P0A9H9] | – | – | – | – | – | 2.6 h | – | – | – | – | – | –
7 | MIISEMQRKLATWAATDPSLRIQRLLRLITQPEWLAEAARITLSSKGAHTPGVDGVNKTMLQARLAVELQILRDELLSGHYQPLPARRVYIPKSNGKLRPLGIPALRDRIVQRAMLMAMEPIWESDFHTLSYGFRPERSVHHAIRTVKLQLTDCGETRGRWVIEGDLSSYFDTVHHRLLMKAVRRRISDARFMTLLWKTIKAGHIDVGLFRAASEGVPQGGVISPLLSNIMLNEFDQYLHERYLSGKARKDRWYWNNSIQRGRSTAVRENWQWKPAVAYCRYADDFVLIVKGTKAQVEAIREECRGVLEGSLKLRLNMDKTKIPHVNDGFIFLGHRLIRKRSRYGEMRVVSTIPQEKARNFAASLTALLWKVRISGEILLG | – | – | – | – | – | – | – | – | – | – | 4.72 ± 0.55 h | –
8 | MTLQQQIIKALGAKPQINAEEEIRRSVDFLKSYLQTYPFIKSLVLGISGGQDSTLAGKLCQMAINELRLETGNESLQFIAVRLPYGVQADEQDCQDAIAFIQPDRVLTVNIKGAVLASEQALREAGIELSDFVRGNEKARERMKAQYSIAGMTSGVVVGTDHAAEAITGFFTKYGDGGTDINPLYRLNKRQGKQLLAALACPEHLYKKAPTADLEDDRPSLPDEVALGVTYDNIDDYLEGKNVPQQVARTIENWYLKTEHKRRPPITVFDDFWKK | 5.28 ± 1.6 h | 4.91 ± 0.29 h | 5.15 ± 0.71 h | 4.58 ± 0.013 h | 3.37 ± 0.64 h | 11.06 ± 0.038 h | 4.67 ± 0.63 h | 7.98 ± 0.17 h | 5.737 ± 0.042 h | 11.6 ± 0.31 h | 4.93 ± 0.19 h | 6.28 ± 0.098 h
